The domain aggregation screens of Martell et al. (2025)

Experiment: soluble fraction after stress (log2 fold change); higher = more stays soluble; pooled small domains, quantitative proteomics
Settings: stress: 75 degC
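Also: 20 min heating vs room temperature control held 20 min.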

Sequence	soluble fraction (log2)
HMHQALLEQSAEHAQQVKAYELLLTAERALDEENTEAFLSAMKSLKPLAENLDAKGKALYQELLPFVTEA	0.485
HMHQAVTVTKPARLFTGPDGKGVVRSLDVGMMLYPTGEKQGMMWEVEDELGNKGWVSSTLLELS	0.0637
HMHSEEAALLHRYIDSLEEPQHTVVVMRDIGGYSFEEIASVVQLKEAHIWMILSRARRKLRELYIKTMDHH	0.0533
HMHSFFGDNIKKLRTAKKMSQEQLADIFGITKAGISYWETGRSEPNFATVQKLADFFGVTTSDLLGEA	-0.43
HMHSFGLHVRNLRKKSNLTLSQLSNASGLSLSAISKIENNQISPSFINLIRLAEGLKMHIADLVTVK	-2.2
HMHSGFHSAILDVDRAVKEGKTLYEALNKYPYIFDETFRSLVRAGEASGELPSILSKLALYLEEQSK	-2.04
HMHSLLDDIPNVGEKRKRILLTHFQSLEEIKAATVEELERLPQINRKAAESIYTFFHSQPIR	-0.735
HMHSRLEDIPGIGPRRRAMLLRHFGGLAELKAAGVEEIARVEGINMALAQRLWRALHGVPDPT	-0.641
HMHSVIALTIPADYAGLRLDQALAKLLPNWSRSRLQTWIAENRVILDGQITTIKQKVWGNELIQISPQD	-1.67
HMHTDQVLVMTRAVGQGEIVRNTDVGLTSVAVDRAVTTIPASQLDEIVGRHALVDLSAGQLLGSHSVGA	0.109
HMHTNNALWAIADDMRARKDDGEFDTYREGYKWAANNIVKEGIHITAIKLEKAYHKAKSEGKV	-0.139
HMHVSIAENIRRIRTQHDMTQEEFGKVAAVSAMAVSQWENGRAVPRMGAVQRIADYFNISKGEVID	-0.699
HMHWDIAQADAKQEVMDSSDDKEAIERIQANMFKDPKDHDQEYANKILNDMIDEIKEKGLEAMQHKFAQE	-0.443
HMHYELTPDAEKQLSALGLTAELVERILEEANDRRPIPGTNRTVYSLHGYSVEFSNTNHKIVSVRKG	-0.882
HMIAAPFVVKDIRVDGVQPATGEAIISSLPVKVGQTATDADVSNVVRQLFSLNRFQNVQATREGNTLVIKV	-0.0493
HMIAGHLQIKNDYYYMVLSYTDSDGKRKQPWIPTGLPMKGNKKRAEKMLIETRQTYVPPVSSG	-3.41
HMIAIGDDARLDDAARFFRIAEDSYAAGDYRKSKENYIEARKLYAELGDHEKVNLINSKISAIDSIT	0.0977
HMIAVIKPSATAEQKAGLVDWIRGQGIDVHISEGHDYTVLGLIGDTSKIDMDLIASLDIVDSVKRVA	-0.338
HMIDAHTTLLAKRLESKGFLALTDKSSAEEIYEEFGISKKAFKKALGALYKERLVRIGEDGVVWM	-1.67
HMIDDPTAVILRLVSEKQVIRRDDVVKALSVTPQKAYRLLKTMTTGGLLTRSGARRTTVYGLPDARER	0.223
HMIDEKVQAADKSIEIGNLSPLKGLVTDDEMHELEKLFEKVMALKDFEVNDVGAGRKYIEAYVSFFKFAEG	-0.418
HMIDELNVGDIRFYLNRYGKEIQIEIIRIGDDGSVYARTMADNALFRVPEARLKNIGEKVPAEEVQRG	-1.42
HMIDFTHEDIERLWNAIVHYVPERQKSDMAIDFIKSLEDIGVEHDEIKASAEYDPKLEEAINTVY	-0.424
HMIDIDNLEKAAILLLSMGTEAAAKVMQKLSRDEVQRLISKMASLSGVSSIEAKWTLQQFFNQYREQSG	-0.786
HMIDLSELINKTGSAYTNLRPSGTAVIGDDRVDVVTEGTFVEKDRPVKVVAVEGQRVVVREVE	0.209
HMIDMQIDTARFGTLGVDDDKIITFPKGLPGFEDERRFFLMDHSGSSKIKWLHSADNPGLALV	-0.0491

Sequence	soluble fraction (log2)
HMIDVGSKIRSLRKSKNISISTLAKNSDLSTGLISQIERNMVVPSIVAMWKISKALDINIGYFFE	-3.13
HMIEDMQQYIKEIRQMVSGRLDMTRNLEDEEIRDTIAELVAEESRKQYMTLTEKREVIEGVFNSMR	-0.0831
HMIEEIAVPEILGMQEEEAKAKIEGLGLVFNVTDRVKSNEYEKGEVMYQSVGPDDTTVKSGYPINVTISEG	0.196
HMIEEIPYSQFMSMLEEGKIDKAEIYQDSIIFSTKPDEQGKAGYYSIAYMKDNVLADRLYDAGVEFTPII	0.293
HMIEGEQVRLLRLLERQEGGMLPLGDKSPASDILLLTGMSKKTFKMAVGALYKAQMITMTPTSIKLVK	-3.18
HMIEGETPEQTMERVSKDPEIVQILQDPVMQGILAQARENPAALQDHMKNPEVYKKINMLIAAGVIRT	0.278
HMIEGSSDWKPNMILDDGGDLTKIIHEEYQDLLDDIRGLSEETTTGVLRLYEMEKENSLAVPAINVND	0.171
HMIEKGSDALEKELRKNNLSINEFLTNKNIDIILDELKLKDIDDLYVNIALGKYTPNQIIKIVNK	-0.0502
HMIELEGVISSVLAGTMFKVKLRGNGHEVLAHISGKMRKKFIRLVIGDAVKIEMSPYDMDKARIVYRI	-0.318
HMIELTTDYKKRVVEALVSARENYSGSDSDFARKWSIDKTVYSRLKKGYQEGLLSVGKYIELGMELNVSSR	-1.87
HMIENITIELNKKALALDFELNKDLPEGVLETIPTLVSLMVRFDPLTVSYHFLRDYIDALLESNLNVDL	-0.0886
HMIENMQEYVRHIRAAVSDRLDLTREVEDDEIREVISQIVAEESRQNYLSLGERQTVIETVFNSMR	-0.339
HMIERLVEFVHTLRHSGVRVSMAEAMDAAEALRHTPITERQIFKTALQSVLVKEHQDIPAFDAAFERFFL	-3.04
HMIESLKGILHKKDPTIAIIDVGGVRLSVNITLSTYEKLEEINSSIELLTYFNVREDAMELYG	-0.468
HMIETIIGAEGKVLETIDNFNQKGVVALAGKEWTARSADASIIPEGAKVSVVEISGVKLIVTQN	0.251
HMIETLGDATFKRLKAMILDGTLEPGTRLSEKKFADHLGVSRTPVREAIGQLVSEGLAKRSAGSAPVVSS	-0.0859
HMIFSIIPGQIRLTKMEIADGYLVLYGFTPSKEIYNLHLNPALKSIFTSSETSFIPVSGGLKFMSTNKL	-2.35
HMIGAKVLVNGQLHRDSYGEGPGQTESNATRLVNYINMKGSHPYHVTTLDGGWRGWVTADSVQV	0.139
HMIGDNNELFQKAQLTPREKEVALLLLQGETNSDIAKILYVGLSTVKKHISSIFEKTKVKSRTEFISKVR	-1.6
HMIGDYALILNIKGGSDWYLGNRVELLFTDGTSKIVTTDKDYNAKKDMVPTQIVTYKVNDNGEYSLKALPT	-2.13
HMIGEKLKEIREKTGMNKKEFAQYLGLKYTTYNNYETEAREPASDFLILISTKFDVSIDYLLGLQ	-1.15
HMIGIEALAGEIDRVRQVLTGGGGLSDVQLFSQLKALNEIKAALGASPDPRAPELVQRVDQLLEAAFRS	0.395
HMIGIGSDVPNKLKPAIYSFGLVAVGEKSVIPDGVQIGKNTAVSGVTSKEDYPDGVLESGETLIKA	0.186
HMIGKLTSSKLAAIHKMKTNELLAHFTEKGFLNINDAGKYILTQQGKDVGAEFKTSQYGGYFLWPENIE	-0.666
HMIGTPLSEWQKDAPEEITRDQIAELVILKFVTVEQLALASDAQLQRIGMGGVGLRERAKLYLNRK	-1.87
HMIGVNMEKSTVEKFANELNLPIDLLLKQLESAGIKKTSGAEELLEADKSALLNYLQIEHGA	0.725

Sequence	soluble fraction (log2)
HMIGVQEFAMTYALTRRETEITQLIIQGKSNAMIAGELFISETTVKKHVSNIFEKTGVSRREELMVRVQAE	-1.98
HMIHANGLTDRQEMILEFIRSYISENNYPPSVREIGKGVGLASSASVHNNMKKLASLGFLNWDTD	-1.93
HMIHFDHPERSILDTMLYEKKGMTAQSARNRLAAYQFQGEDVFKPVSVLSGGELSRITLAIKNAMADK	-0.36
HMIHQPNNETTRNLIAGVVKKSLSVWETRVQVDGVDVTTAKDNLAEVHINIRYRLRHNQTPASLGLRLNLG	-0.0232
HMIHSEDMDDHILGHKLVDQYLNKHIEFDNIKKAWNYHTVAIKKFGRYPHRNKILKRESTIEEIDFLKQP	0.252
HMIHSEEIQDHIFVKQLGEVFLRNHINYENIMKSWDDHTNVIKRFRRYPHRNKILNRESTIDEISFLKE	0.176
HMIIDTELMTRVMKFGFSQADASDLVAQHSDDLLRTAISRVEARAESKGMTPLETPAGYFRWTLQDLVRNP	-2.04
HMIIIMKKSATNSEVRKVIERAEKEGLTVQVNQLEKQQVLGLVGDTRLIQDVAFLRYEGVENVERI	-2.37
HMIILYTDEQQRIIDRLNEFIGEQPSQNEAAKLLGISAPILTNLRKGTYTGTVDKFMNKLAAYFNIKADLG	-1.3
HMIIMVNLYQIWDKEVQGLDSVGAKPEQIEARRQAIAAHFESKARQAGMSSKDIYATLDNFDTYSRQKTS	-2.26
HMIINFDAIRLTTELNKYNRHKAIPNSFFDGTFTILDVRDLYDSLSPKVQKIADTLIEQYNVDVKQ	-1.82
HMIISMKKGATPQEISHVRKLIEELGYKVHESQGSERMVFGAIGDERSKHRLTSLEAQPGVEKVIPILA	0.0278
HMIISMKKTATKEQIAHVRELIEGMGYKAHMSVGAERVIFGAIGDERGKERLVSLEAQPGVEKVIPIL	-0.445
HMIITLNIENLKRARENAGLTQTQAAQKIGVSDGTYKNYEQGKREPNGDKIVTIANAFGVTTDYLLGR	-0.475
HMIIVMRKGATEAQVNDIVERVRAAGFGVHLSQGEERTIIGAIGGDRAVLADLNLEAAPGVERVTPIS	-0.176
HMIIYGLNPVKDFINLFPNKISTLFISKNKLSDSEMKSVVNINTVYVSDAELKRITGTTKHQSLAAEID	-1.2
HMIKILGSAYRHGLDDDDILRAWNYHIQEFFEGEDPEKIVRLGFDTHGRLLEIGGEIYPGGGEKIFHAM	-0.733
HMIKITLPDGSVKEYKKGITPAEVAQSISEGLARNVISASYNGKTIETVTPLTTDGSLVLYTWDSPEGK	0.0404
HMIKLTVRQQEILDLIARSIDQTGFPPTRAEIAAELGFKSVNAAEEHLQALARKGVIEMVPGISRGIRLVQ	-1.48
HMIKRNPLDEIEGVGPGRKKALLHAFGSAKGVSRASVVDLVKVEGVSQALAERIHDFFHPATR	-0.299
HMIKSIRELAEVITLWKNQGKTILIAEHRLSYLMDLADRVLYMKDGQIENDFSMADFRKIPPDEISRMGLR	0.103
HMIKVAANESNRSDVLEIVRLFRVRVVDVNPESLTIEATGAEGKIDALLGLLEHYGVIELVRSGAVAVT	-1.86
HMILESREKYLGEVLEVLVEEEKEGEYFGYSQNYLRVKFKLEEKNLINQLINIKIKSIEDDILIGEKEN	-3.46
HMILKNVTSDLANKRLDKVASILFQTYSRTQIKKWILEGRVLVNGEISNPKDHVHENDEIEINPI	-1.9
